In article PMC11213948 (2024):

B1: Xpress-His G5_(845–1508) [not stated] / G5_(1–1508)-FLAG [not stated] (parent complex)
chain 1: ARSLLPLSTSLDHRSKEELHQDCLVLATAKHSRELNEDVSADVEERFHLGLFTDRATLYRMIDIEGKGHLENGHPELFHQLMLWKGDLKGVLQTAAERGELTDNLVAMAPAAGYHVWLWAVEAFAKQLCFQDQYVKAASHLLSIHKVYEAVELLKSNHFYREAIAIAKARLRPEDPVLKDLYLSWGTVLERDGHYAVAAKCYLGATCAYDAAKVLAKKGDAASLRTAAELAAIVGEDELSASLALRCAQELLLANNWVGAQEALQLHESLQGQRLVFCLLELLSRHLEEKQLSEGKSSSSYHTWNTGTEGPFVERVTAVWKSIFSLDTPEQYQEAFQKLQNIKYPSATNNTPAKQLLLHICHDLTLAVLSQQMASWDEAVQALLRAVVRSYDSGSFTIMQEVYSAFLPDGCDHLRDKLGDHQSPATPAFKSLEAFFLYGRLYEFWWSLSRPCPNSSVWVRAGHRTLSVEPSQQLDTASTEETDPETSQPEPNRPSELDLRLTEEGERMLSTFKELFSEKHASLQNSQRTVAEVQETLAEMIRQHQKSQLCKSTANGPDKNEPEVEAEQPLCSSQSQCKEEKNEPLSLPELTKRLTEANQRMAKFPESIKAWPFPDVLECCLVLLLIRSHFPGCLAQEMQQQAQELLQKYGNTKTYRRHCQTFCM
chain 2: MGQEPRTLPPSPNWYCARCSDAVPGGLFGFAARTSVFLVRVGPGAGESPGTPPFRVIGELVGHTERVSGFTFSHHPGQYNLCATSSDDGTVKIWDVETKTVVTEHALHQHTISTLHWSPRVKDLIVSGDEKGVVFCYWFNRNDSQHLFIEPRTIFCLTCSPHHEDLVAIGYKDGIVVIIDISKKGEVIHRLRGHDDEIHSIAWCPLPGEDCLSINQEETSEEAEITNGNAVAQAPVTKGCYLATGSKDQTIRIWSCSRGRGVMILKLPFLKRRGGGIDPTVKERLWLTLHWPSNQPTQLVSSCFGGELLQWDLTQSWRRKYTLFSASSEGQNHSRIVFNLCPLQTEDDKQLLLSTSMDRDVKCWDIATLECSWTLPSLGGFAYSLAFSSVDIGSLAIGVGDGMIRVWNTLSIKNNYDVKNFWQGVKSKVTALCWHPTKEGCLAFGTDDGKVGLYDTYSNKPPQISSTYHKKTVYTLAWGPPVPPMSLGGEGDRPSLALYSCGGEGIVLQHNPWKLSGEAFDINKLIRDTNSIKYKLPVHTEISWKADGKIMALGNEDGSIEIFQIPNLKLICTIQQHHKLVNTISWHHEHGSQPELSYLMASGSNNAVIYVHNLKTVIESSPESPVTITEPYRTLSGHTAKITSVAWSPHHDGRLVSASYDGTAQVWDALREEPLCNFRGHRGRLLCVAWSPLDPDCIYSGADDFCVHKWLTSMQDHSRPPQGKKSIELEKKRLSQPKAKPKKKKKPTLRTPVKLESIDGNEEESMKENSGPVENGVSDQEGEEQAREPELPCGLAPAVSREPVICTPVSSGFEKSKVTINNKVILLKKEPPKEKPETLIKKRKARSLLPLSTSLDHRSKEELHQDCLVLATAKHSRELNEDVSADVEERFHLGLFTDRATLYRMIDIEGKGHLENGHPELFHQLMLWKGDLKGVLQTAAERGELTDNLVAMAPAAGYHVWLWAVEAFAKQLCFQDQYVKAASHLLSIHKVYEAVELLKSNHFYREAIAIAKARLRPEDPVLKDLYLSWGTVLERDGHYAVAAKCYLGATCAYDAAKVLAKKGDAASLRTAAELAAIVGEDELSASLALRCAQELLLANNWVGAQEALQLHESLQGQRLVFCLLELLSRHLEEKQLSEGKSSSSYHTWNTGTEGPFVERVTAVWKSIFSLDTPEQYQEAFQKLQNIKYPSATNNTPAKQLLLHICHDLTLAVLSQQMASWDEAVQALLRAVVRSYDSGSFTIMQEVYSAFLPDGCDHLRDKLGDHQSPATPAFKSLEAFFLYGRLYEFWWSLSRPCPNSSVWVRAGHRTLSVEPSQQLDTASTEETDPETSQPEPNRPSELDLRLTEEGERMLSTFKELFSEKHASLQNSQRTVAEVQETLAEMIRQHQKSQLCKSTANGPDKNEPEVEAEQPLCSSQSQCKEEKNEPLSLPELTKRLTEANQRMAKFPESIKAWPFPDVLECCLVLLLIRSHFPGCLAQEMQQQAQELLQKYGNTKTYRRHCQTFCM
B2: Xpress-His G5_(845–1287) [not stated] / G5_(1–1508)-FLAG [not stated] (parent complex)
chain 1: ARSLLPLSTSLDHRSKEELHQDCLVLATAKHSRELNEDVSADVEERFHLGLFTDRATLYRMIDIEGKGHLENGHPELFHQLMLWKGDLKGVLQTAAERGELTDNLVAMAPAAGYHVWLWAVEAFAKQLCFQDQYVKAASHLLSIHKVYEAVELLKSNHFYREAIAIAKARLRPEDPVLKDLYLSWGTVLERDGHYAVAAKCYLGATCAYDAAKVLAKKGDAASLRTAAELAAIVGEDELSASLALRCAQELLLANNWVGAQEALQLHESLQGQRLVFCLLELLSRHLEEKQLSEGKSSSSYHTWNTGTEGPFVERVTAVWKSIFSLDTPEQYQEAFQKLQNIKYPSATNNTPAKQLLLHICHDLTLAVLSQQMASWDEAVQALLRAVVRSYDSGSFTIMQEVYSAFLPDGCDHLRDKLGDHQSPATPAFKSLEAFFLYGRLYE
chain 2: B1 chain 2
B3: Xpress-His G5_(1–1287) [not stated] / G5_(1–1508)-FLAG [not stated] (parent complex)
chain 1: MGQEPRTLPPSPNWYCARCSDAVPGGLFGFAARTSVFLVRVGPGAGESPGTPPFRVIGELVGHTERVSGFTFSHHPGQYNLCATSSDDGTVKIWDVETKTVVTEHALHQHTISTLHWSPRVKDLIVSGDEKGVVFCYWFNRNDSQHLFIEPRTIFCLTCSPHHEDLVAIGYKDGIVVIIDISKKGEVIHRLRGHDDEIHSIAWCPLPGEDCLSINQEETSEEAEITNGNAVAQAPVTKGCYLATGSKDQTIRIWSCSRGRGVMILKLPFLKRRGGGIDPTVKERLWLTLHWPSNQPTQLVSSCFGGELLQWDLTQSWRRKYTLFSASSEGQNHSRIVFNLCPLQTEDDKQLLLSTSMDRDVKCWDIATLECSWTLPSLGGFAYSLAFSSVDIGSLAIGVGDGMIRVWNTLSIKNNYDVKNFWQGVKSKVTALCWHPTKEGCLAFGTDDGKVGLYDTYSNKPPQISSTYHKKTVYTLAWGPPVPPMSLGGEGDRPSLALYSCGGEGIVLQHNPWKLSGEAFDINKLIRDTNSIKYKLPVHTEISWKADGKIMALGNEDGSIEIFQIPNLKLICTIQQHHKLVNTISWHHEHGSQPELSYLMASGSNNAVIYVHNLKTVIESSPESPVTITEPYRTLSGHTAKITSVAWSPHHDGRLVSASYDGTAQVWDALREEPLCNFRGHRGRLLCVAWSPLDPDCIYSGADDFCVHKWLTSMQDHSRPPQGKKSIELEKKRLSQPKAKPKKKKKPTLRTPVKLESIDGNEEESMKENSGPVENGVSDQEGEEQAREPELPCGLAPAVSREPVICTPVSSGFEKSKVTINNKVILLKKEPPKEKPETLIKKRKARSLLPLSTSLDHRSKEELHQDCLVLATAKHSRELNEDVSADVEERFHLGLFTDRATLYRMIDIEGKGHLENGHPELFHQLMLWKGDLKGVLQTAAERGELTDNLVAMAPAAGYHVWLWAVEAFAKQLCFQDQYVKAASHLLSIHKVYEAVELLKSNHFYREAIAIAKARLRPEDPVLKDLYLSWGTVLERDGHYAVAAKCYLGATCAYDAAKVLAKKGDAASLRTAAELAAIVGEDELSASLALRCAQELLLANNWVGAQEALQLHESLQGQRLVFCLLELLSRHLEEKQLSEGKSSSSYHTWNTGTEGPFVERVTAVWKSIFSLDTPEQYQEAFQKLQNIKYPSATNNTPAKQLLLHICHDLTLAVLSQQMASWDEAVQALLRAVVRSYDSGSFTIMQEVYSAFLPDGCDHLRDKLGDHQSPATPAFKSLEAFFLYGRLYE
chain 2: B1 chain 2

Variants of: B1
Assay: pull-down; HEK293 cell lysates; western blot with anti-FLAG and anti-Xpress; n = 3; read off a plot

| Variant | response |
| --- | --- |
| chain 1 A107E | ~0.38 relative intensity (PD/In) |

Variants of: B2
Assay: pull-down; HEK293 cell lysates; western blot with anti-FLAG and anti-Xpress; read off a plot

| Variant | response |
| --- | --- |
| chain 1 ARSLLPLSTSLDHRSKEELHQDCLVLATAKHSRELNEDVSADVEERFHLGLFTDRATLYRMIDIEGKGHLENGHPELFHQLMLWKGDLKGVLQTAAERGELTDNLVEMAPAAGYHVWLWAVEAFAKQLCFQDQYVKAASHLLSIHKVYEAVELLKSNHFYREAIAIAKARLRPEDPVLKDLYLSWGTVLERDGHYAVAAKCYLGATCAYDAAKVLAKKGDAASLRTAAELAAIVGEDELSASLALRCAQELLLANNWVGAQEALQLHESLQGQRLVFCLLELLSRHLEEKQLSEGKSSSSYHTWNTGTEGPFVERVTAVWKSIFSLDTPEQYQEAFQKLQNIKYPSATNNTPAKQLLLHICHDLTLAVLSQQMASWDEAVQALLRAVVRSYDSGSFTIMQEVYSAFLPDGCDHLRDKLGDHQSPATPAFKSLEAFFLYGRLYE [chain 1 A107E] | ~0.33 relative intensity (PD/In) |

Variants of: B3
Assay: pull-down; HEK293 cell lysates; western blot with anti-FLAG and anti-Xpress; n = 5; read off a plot

| Variant | response |
| --- | --- |
| chain 1 A951E | ~0.29 relative intensity (PD/In) |
